Data as given in the DeepSol protein solubility set.

assay: soluble on expression in E. coli; label from the status in PepcDB or PDB records

Sequence	soluble on expression in E. coli
MIQRFIELGEGYSDIYELIALAKANRHRLSGFFVFHTVKKGQAVVSLAIVLHPTDPGDFQPLYICREGIPDPSVKPNKRYELFMETAKELGMDVIHLDVKPSTMFAELDLYYQHLIGIMRMNRFIPPLQ	not soluble
MKKILLLILITGLFSFGNSKNKIPTRKFTSVKISGPRYRLEGAFGILSSKENSSYMNNRFISNSISLLSEWKVQVNEKIDATFGPKVTLDFSFSIFKGLYTYKPNLNLGAEANFNYRIKEKMKVYGGVEIGTGVGISIENANIHKTILTTISKISVGVKINDKYNIGVYLGNNIKGMLGIEAGYTF	not soluble
MSLKIKDIKVIFTEPDNIRLIIVKILTDQDGLYGVGCATFTQRPNPVKYAIEDYLKPFLIGKEVSNIEDIWQSSYVSSYWRNGPVLNNALSGVDQALWDIKGKMANMPLYDLFGGKTREAAAVYVHSSGDSNEEVGDKMQAFIEQGFHHIRVQVSTPGYSTYGNKSAKAGDKTLNNNDPKLGPIPVTKRVKDYSDGKLYAHPGGVFEPKPYLRSALSLFEYIRDRFGYGIEILHDVHERIPPILGVWFAKEVEKYQLFFLEDLFSPEDNEYFSMVRAQSSTPIAMGELYSSPHEIIPMIKNRLIDFIRIHISDIGGLTPAKKIAAMGEIFGVRTAWHGPGDTSPIGHAANLALDLSCYNFGIQEYSIFGENTKEVFPGCPIVKKGMMWSNDKPGLGIDIDEKLAKKFPFKEREYGGAWDTVRRADGSMVKEGHHHHHH	not soluble
MMGYNFNEKPLLIFWETTKACGLKCEHCRASAILEALPDEMNYDESIDFLSHIKEFGKPYPIVILTGGDMLRKRRINDIMKYLKDAEIPFSVSPAVTEMLTDERIKSFLEFGVSSVSISLDGMKDVHEKVRGVPGVFDDTVRVVEKLIKEGIPMQINTVVMRSTVNDLPKVLKLILDKSVKVWEVFFLIKTGRGIDREDLSPEEYEDVNKYLLYATGYGIRIRTVESPIFRRITLQSGSTGRIEGGPLYQKLVSETEKIIGKKPSAIAKSVIPTRDGYGIIFVGHNGDVYPSGFLPYKVGNVKNQSIVDIYRKSELLRKIRDPDNLVGKCGFCEYRSVCGGSRARAFAYSSDPFGTDPSCSYMPKSVVSA	not soluble
MGSDKIHHHHHHMVTLVRQVEIQPYQPKYAQAVSELFHLCVHNIEHERYSQAQLNAWSKAPRSAKHWHLRLSRSQAWIILVTSTESLSKICVGFINVETDYYHRGYIDSFYIHPDWQRQGVGGRVYCELEQWARGQGYASLSVDASYLSKGLFTQLGFVQIQRNYQQKLGQVLTSFYMTKKL	not soluble
MSSNLTSNEMSSTSAIVEPPEAVKGNERDKSTRRSTSQVVRPEKHEVENALEDQCSSSSLPKEAQYYAKLDKKLEGKDPRSQFYEAVRLSADIFAHKFEKAVCSRQTFEPTNSIIKVLNTAEEEMLHEKVVPLPVSSKLQYYLNRGRYDTIFDRDEQLQRTADPMADEPDHVEKRVTSILEQASREMEEGEVEPVFYDGSDEDQELPIDLGAMRNLQRTNKFAARSSRMAARRGGRPGYRGAFRGAARGAPSRRPAPAAEVAPETPVAAPMAPAAPAAPATPEAAPAAEVMDTSIATEMPQESAVDLSNVSAATEMDTSKEGEASRPTSEKKKKIRTTEMDRLMSMDLGPKDGGRVGELGHMWPESRRRPAAPLPETPAAQPRKSLPRRAAEKKKPEDSDAAEEQEVEMEVDNDASTSTPRNARGGRGGGNRRGSRRGQKRTSGGSGKLVEPKKEPVDEPAEKIPKRSEAAPEVPATATTKEAPPSTSSSPPDAPATPATPASSDSRDSPRKIRAMIFSLTGSPPESETPPVLQQEQVISTAAPTAGRHPNIIQQVPHINRIPPQPLRRLTAPQAPPASQPEEPPVQQTVPVVKVELASAPAPIVRDPQSTEPVPPAMPTLVENNHEATLILPPNKTSDYTRWNAQDLINWVRLLITNNVDSTIAIMVREEFDGETLACLVLDDDFRKEVPIPYGHYKKMKIYGTEVLNHYRTEKYQADLRKFHEELAAWKAQQR	not soluble
MVKGRIHSVESCGTVDGPGIRYVIFTQGCLLRCQYCHNADTWEIGKGKEITVEEVMQDVTCYLPFIEASGGGITVSGGEPLLQLDFLIELFKKCKAAGIHTTIDSSGGCYSEEPEFRNKLDILMDYTDLVLLDLKHIDSKKHRKLTGKPNEHILQFARYLSDKNKPIWVRHVLVPGVTDNEEDLQKLSSFIQSLSNVQKVEVLPYHKLGVYKWEALGHKYPLANVEPPTEKNVEHAKYILQAV	not soluble
MGSDKIHHHHHHMRPVEHAVIPCAGVGSRLNRGVPKSLTEIDGRTLLGRTLLALEHIPHVFLVVGFRKELVISEALRHRRNLIFVPNEYFDQTNTLYSVKLASRLIRDDFLMVDGDVVFDPSSFASLLGQLQTCDGPAIAYSRRTTEDGVKVRLDMSRGETTCTGFFRGEGAHEWTGIGRLNNRVISGNSLFVYESIERHMPAPAYLVDSMDIDTPADLEIARATYGRHDH	not soluble
MGLVTDEVRARAEKYTGDEICREKTKEFLKEVSMPNGLLPLKDIEEVGYDRETGIVWLKQKKSITHKFEAIGKLVSYATEVIAQVEVGKIKKLTGVKAKELLIWVTLNELVLEQPTSSGKINFRTPTGLSRTFPVSAFVVPEVEKPATEKNNGTTEVKEAVAVTDA	not soluble
MTASERVVVKELSSSLLDMKFMLKKKKQIETKAAKKKEAKLDQLITEKEAEATCSTEILKSSEPKLEICYDYAKLENLKFGRLSFGGFNKEVELLMEYYEKLQNGMLSDSDDDGMDVDDEEMAKSLGGQKLAALDKKSQSKRERRQQNERNEETTGGRRFNIKDIRKRFAADDVADAPERKFMKPAEDC	not soluble
GMSVVDPSLIERIIRDDVRAMGAYHVPDSHGLVKLDAMENPYRLPPALRSELAARLGEVALNRYPVPSSEALRAKLKEVMQVPAGMEVLLGNGSDEIISMLALAAARPGAKVMAPVPGFVMYAMSAQFAGLEFVGVPLRADFTLDRGAMLAAMAEHQPAIVYLAYPNNPTGNLFDAADMEAIVRAAQGSVCRSLVVVDEAYQPFAQESWMSRLTDFGNLLVMRTVSKLGLAGIRLGYVAGDPQWLEQLDKVRPPYNVNVLTEATALFALEHVAVLDEQAAQLRAERSRVAEGMAAHGGVTVFPSAANFLLARVPDAAQTFDRLLARKVLIKNVSKMHPLLANCLRVTVSTPEENAQFLEAFAASLQD	soluble
MQPLFTQERRIFHKKLLDGNILATNNRGVVSNADGSNTRSFNIAKGIADLLHSETVSERLPGQTSGNAFEAICSEFVQSAFEKLQHIRPGDWNVKQVGSRNRLEIARYQQYAHLTALAKAAEENPELAAALGSDYTITPDIIVTRNLIADAEINRNEFLVDENIATYASLRAGNGNMPLLHASISCKWTIRSDRAQNARSEGLNLVRNRKGRLPHIVVVTAEPTPSRISSIALGTGEIDCVYHFALYELEQILQSLNYEDALDLFYIMVNGKRLKDISDLPLDLAV	soluble
SAASKLQAFWNHPAGPKTIHFWAPTFKWGISIANVADFAKPPEMISYPQQVVVACSGVIWARWGMVITPINWNLSSVNAAMAVTGVCQLSRKIRHDYFSDEKSATASLEG	soluble
MRVGIVGAGPAGVAAAVFLRRYNVHVTVFEKNRVGGLLRNAHLVENIPVLPPASGEEICKTLEKRLFESGAELIWEEVVKVENEKILTEREIHSFDYVIVASGTIPRRIPEFEVSEKVVYEFIDLPEFEKLAIYGAGDAAFDSALNALVRGKEVHLFNRGSRIRALPLLVERAKKYEKFYYHERCPILKVEEESKMVKLKTEHGVFTFDALLLSVGRLPNTSFVEPGERNFIVGDARGGFRQVSIAMGSAIETAMEILRREGTVSATLPLKEGLLNPNGEHQAG	soluble
MALTFTQAVSKLTSKFPHLNLVEFNGVRYPTVIVCPIHGRVTCSTFKSMLDSKSGCPKCASYGVNSHKIPEDTIDKLSKNTVLEDTVTGETLTFPSRASAARSLGINPAAITDRIKGRVHTETLLAGRYKVHICTK	not soluble
SETQSFVVSVAGSDRVGIVHDFSWALKNISANVESSRMACLGGDFAMIVLVSLNAKDGKLIQSALESALPGFQISTRRASSVAERHVSPDTREYELYVEGPDSEGIVEAVTAVLAKKGANIVELETETLPAPFAGFTLFRMGSRVAFPFPLYQEVVTALSRVEEEFGVDIDLEEVVEGEDSEEDDDSPNSPVGRH	soluble
MSMAMSQSNRELVVDFLSYKLSQKGYSWSQFSDVEENRTEAPEGTESEAVKQALREAGDEFELRYRRAFSDLTSQLHITPGTAYQSFEQVVNELFRDGVNWGRIVAFFSFGGALCVESVDKEMQVLVSRIAAWMATYLNDHLEPWIQENGGWDTFVELYGNNAAAESRKGQERLEHHHHHH	soluble
MEFSMNATVEQLAPVEQQATTDWVVAALYQFKEVADAADLQQRLLDLVKTINLCGTLIVASEGINGTVAGDRHAIDTIREFLLNEGFHAMEYKESHSAEKPFRKMKIKLKQEIVTLGVEVKPRDLVGHYLDPKEWNELISRDDVILVDTRNDYEYKAGTFKGAIDPKTETFREFPDYVKQNLEQHKDKKIAMFCTGGIRCEKSTSLLLQEGFNEVYHLKGGILKYLEETPAEESLWEGECFVFDGRTAVTHGVEEGQNVKCHACGWPLTPEEVALPSYEHGVSCVYCIEKTTEKQKEGFRMRQSQIAAAKRKRLLEHHHHHH	soluble
MSLSEKIIQLNEGIIKEELKNLVRSSVEETLNHLLDKEAEDLTNAAKYERTQERQGYRSGHYTRSLQTTSGEVTLRVPKLKGVPFETAIIERYRRRESSVEEALIEMYLAGVSVRRVEDITEALWGTKVSPGTISELNKKAYVHIENWRNRPLQDGKYPYVYVDGIYLKRNWGGEYENVSILVAIAVNQEGYREVIGAREGMKEDKASWKEFLQWLKGRGLDGVKLIVGDKCLGMLESVNEVFPEAKYQRCTVHFYRNIFSVTPRSKMKLVAKMLKAIHAQESKASAREKAKLVAEELKSMKLREAAKKLEDGIEETLTYMEFPYEHWTRIRTNNTIERLNREIRRRTRVVGTFPDGNSALMLVCARLRHVAGTQWGSKKYLNMKHLENMDSDEGHHHHHH	soluble
MGSDKIHHHHHHMKKILFLFLAACFFFSCEKETIVIPQQHAGRTVLAFFWADNSLNSSLRDNIQTMMQGLQAMKDSAALLVYWDGEASDISWPEPCIVEYVTNGQGGINSLSKGTIDAMMADKNTSIYDLIGIGNIRKKYPPQTSTEKTVMQTVIGDMMSAYPSESYGIIFGSHGSGWLPTITGTRSIGQDGGRYSSDTALIPELAEVLRTVNPQKFDFVLFDACMMGCAEVYYELKDAARYCIASVLDIPAAGFPYASVMPYLYENAIKDYLEPICKDYIDYYNYIGWGTISAVDCNQMEGLAEAVRSVILSNQDSLKNVDTADLQQYGKGSSSFKGYAYDMLQFIGKLCGGMAPDDFTQQLKKTVIYTDYTHDPTSSLYRIDGDNYSGMGMYIPNSFTTPKYLLWNNYFKSSIAWYHASGWAETESIWGN	not soluble
MAPKFTLNQERDNDRERTRASYNNDRRRNDYDPRACYKCGKLGHFARSCHVVTQPTTAYITCYFCSEEGHRSNGCPNKRTDQVNPKGHCYWCGNQDHRFNLIIWRSRCLFRLMKPKYAF	soluble
MKQFLVALTILTSSLFSFASALDIIDESFLALKEFLDQPDSGAFLSLLERARGIFIVPKYLKLGWVLGGQYGQGVLLKRDPETNTWYGPLFVKMYGLSFGPQIGFQSVSLIAVIMENVDAFAEGNITLGGSLSVAAGPLGRRLSADYNLDASVYSYSIARGFYAGFSLEGAKIDVDLDLTREYYNVYRIEPEEILRREVSGRAEKIVNLLNEKLTEEAAALEHHHHHH	not soluble
MLVAYDSMTGNVKRFIHKLNMPAVQIDEDLVIDEDFILITYTTGFGNVPERVLDFLERNNEKLKGVSASGNRNWGDMFGASADKISTKYEVPIVSKFELSGTNNDVEYFKERVREIATH	soluble
